Read-outs that look alike come from different tables or passages of the source.
What was measured:
[1] = In vivo pharmacokinetic (PK) studies in rats; design: species or system Sprague-Dawley rats; conditions: rat, male Sprague-Dawley rats, single SC dose 1.0 mg/kg, serum ELISA; for AUC(0-inf): read-out: Rat PK AUC Total; for level at time molar at 24 h: read-out: Rat PK C24
Outline: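 Male Sprague-Dawley rats (n=3) given a single 1 mg/kg IV or SC dose of relaxin constructs in 20 mM histidine, 750 mM NaCl, pH 6.0; jugular serum sampled to 72 h. Serum relaxin by ELISA; Cmax, AUCinf, C24 and half-life from non-compartmental analysis of individual profiles.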

human RXFP1 receptor = molecular target: T1, human RXFP1 receptor (Homo sapiens, UniProt Q9HBX9); experiment: Intracellular cAMP accumulation assay; assay type: cell-based
T1 construct: expressed in transfected cells
T1 sequence (Q9HBX9 1-757): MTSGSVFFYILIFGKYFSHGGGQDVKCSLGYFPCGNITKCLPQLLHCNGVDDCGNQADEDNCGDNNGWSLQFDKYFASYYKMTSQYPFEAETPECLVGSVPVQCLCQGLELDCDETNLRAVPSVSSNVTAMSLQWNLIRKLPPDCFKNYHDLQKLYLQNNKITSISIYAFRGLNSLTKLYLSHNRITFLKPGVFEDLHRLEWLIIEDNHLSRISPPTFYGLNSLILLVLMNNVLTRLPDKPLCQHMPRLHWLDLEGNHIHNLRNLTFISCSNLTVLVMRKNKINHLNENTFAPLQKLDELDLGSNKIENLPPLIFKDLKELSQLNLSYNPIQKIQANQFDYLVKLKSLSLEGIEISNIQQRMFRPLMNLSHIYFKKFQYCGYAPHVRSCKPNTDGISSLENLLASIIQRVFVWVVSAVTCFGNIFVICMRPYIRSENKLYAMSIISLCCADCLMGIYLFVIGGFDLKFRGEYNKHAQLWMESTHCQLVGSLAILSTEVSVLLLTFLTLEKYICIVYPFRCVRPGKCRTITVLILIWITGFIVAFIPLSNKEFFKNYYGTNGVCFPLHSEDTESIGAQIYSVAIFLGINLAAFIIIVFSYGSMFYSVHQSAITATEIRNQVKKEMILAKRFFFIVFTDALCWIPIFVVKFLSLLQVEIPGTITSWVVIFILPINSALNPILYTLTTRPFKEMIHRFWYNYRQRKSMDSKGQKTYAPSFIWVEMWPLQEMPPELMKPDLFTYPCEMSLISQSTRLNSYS

[2] = CHO-K1 cells stably expressing human RXFP1, 10 min at 37° C., HTRF cAMP, average, read-out: hRXFP1/CHO-K1 cAMP EC50 (nM, avg)

SMILES | AUC(0-inf) [1] | level at time molar at 24 h [1] | EC50 (human RXFP1 receptor; [2]) | EC50 (human RXFP1 receptor)
CC[C@H](C)[C@@H]1NC(=O)[C@H](C)NC(=O)[C@H]([C@@H](C)CC)NC(=O)[C@H](CCC(N)=O)NC(=O)[C@H](C)NC(=O)[C@H](CCCNC(=N)N)NC(=O)[C@H](C(C)C)NC(=O)[C@H](CC(C)C)NC(=O)[C@H](CCC(=O)O)NC(=O)[C@H](CCCNC(=N)N)NC(=O)CNC(=O)[C@@H](NC(=O)[C@H](CC(C)C)NC(=O)[C@H](CCCCN)NC(=O)[C@@H](NC(=O)[C@@H](NC(=O)[C@H](CCC(=O)O)NC(=O)[C@H](CCC(=O)O)NC(=O)[C@H](CCSC)NC(=O)[C@H](Cc2c[nH]c3ccccc23)NC(=O)[C@H](CO)NC(=O)[C@H](C)N)C(C)C)[C@@H](C)CC)CSSC[C@@H]2NC(=O)[C@@H](NC(=O)[C@H](CCCCN)NC(=O)[C@H](CC(N)=O)NC(=O)[C@H](C)NC(=O)[C@H](CC(C)C)NC(=O)[C@H](C)NC(=O)[C@H](CO)NC(=O)[C@H](Cc3ccc(O)cc3)NC(=O)[C@H](CC(C)C)NC(=O)[C@@H](N)Cc3ccc(/C(C)=N/OCCNC(=O)CNC(=O)[C@H](CO)NC(=O)[C@H](Cc4c[nH]cn4)NC(=O)[C@H](Cc4c[nH]cn4)NC(=O)[C@H](Cc4c[nH]cn4)NC(=O)[C@H](Cc4c[nH]cn4)NC(=O)[C@H](Cc4c[nH]cn4)NC(=O)CNC(=O)[C@H](CO)NC(=O)CC[C@H](NC(=O)CCCCCCCCCCCCC(=O)O)C(=O)O)cc3)CSSC[C@H](NC(=O)CNC(=O)[C@H](C(C)C)NC(=O)[C@H](Cc3c[nH]cn3)NC2=O)C(=O)N[C@@H]([C@@H](C)O)C(=O)N[C@@H](CCCCN)C(=O)N[C@@H](CCCNC(=N)N)C(=O)N[C@@H](CO)C(=O)N[C@@H](CC(C)C)C(=O)N[C@@H](C)C(=O)N[C@@H](CCCNC(=N)N)C(=O)N[C@@H](Cc2ccccc2)C(=O)N[C@H](C(=O)O)CSSC[C@@H](C(=O)NCC(=O)N[C@@H](CCSC)C(=O)N[C@@H](CO)C(=O)N[C@H](C(=O)N[C@@H](Cc2c[nH]c3ccccc23)C(=O)N[C@@H](CO)C(=O)O)[C@@H](C)O)NC1=O [AQ1-GSHHHHHGS-Glu^γ-C13-COOH] | 0.582 µM·h | 0.46 nM | 0.28 nM | –
CC[C@H](C)[C@@H]1NC(=O)[C@H](C)NC(=O)[C@H]([C@@H](C)CC)NC(=O)[C@H](CCC(N)=O)NC(=O)[C@H](C)NC(=O)[C@H](CCCNC(=N)N)NC(=O)[C@H](C(C)C)NC(=O)[C@H](CC(C)C)NC(=O)[C@H](CCC(=O)O)NC(=O)[C@H](CCCNC(=N)N)NC(=O)CNC(=O)[C@@H](NC(=O)[C@H](CC(C)C)NC(=O)[C@H](CCCCN)NC(=O)[C@@H](NC(=O)[C@@H](NC(=O)[C@H](CCC(=O)O)NC(=O)[C@H](CCC(=O)O)NC(=O)[C@H](CCSC)NC(=O)[C@H](Cc2c[nH]c3ccccc23)NC(=O)[C@H](CO)NC(=O)[C@H](C)N)C(C)C)[C@@H](C)CC)CSSC[C@@H]2NC(=O)[C@@H](NC(=O)[C@H](CCCCN)NC(=O)[C@H](CC(N)=O)NC(=O)[C@H](C)NC(=O)[C@H](CC(C)C)NC(=O)[C@H](C)NC(=O)[C@H](CO)NC(=O)[C@H](Cc3ccc(O)cc3)NC(=O)[C@H](CC(C)C)NC(=O)[C@@H](N)Cc3ccc(C(C)=NOCCNC(=O)[C@H](CCCCN)NC(=O)[C@H](CCCCN)NC(=O)[C@H](CO)NC(=O)CNC(=O)CNC(=O)[C@H](CO)NC(=O)CNC(=O)CNC(=O)[C@H](CCC(=O)O)NC(=O)[C@H](CCC(=O)O)NC(=O)CC[C@H](NC(=O)CCCCCCCCCCCCC(=O)O)C(=O)O)cc3)CSSC[C@H](NC(=O)CNC(=O)[C@H](C(C)C)NC(=O)[C@H](Cc3c[nH]cn3)NC2=O)C(=O)N[C@@H]([C@@H](C)O)C(=O)N[C@@H](CCCCN)C(=O)N[C@@H](CCCNC(=N)N)C(=O)N[C@@H](CO)C(=O)N[C@@H](CC(C)C)C(=O)N[C@@H](C)C(=O)N[C@@H](CCCNC(=N)N)C(=O)N[C@@H](Cc2ccccc2)C(=O)N[C@H](C(=O)O)CSSC[C@@H](C(=O)NCC(=O)N[C@@H](CCSC)C(=O)N[C@@H](CO)C(=O)N[C@H](C(=O)N[C@@H](Cc2c[nH]c3ccccc23)C(=O)N[C@@H](CO)C(=O)O)[C@@H](C)O)NC1=O [AQ1-KKSGGSGGEE-Glu^γ-C13-COOH] | 0.676 µM·h | 0.09 nM | – | 0.16 nM
CC[C@H](C)[C@@H]1NC(=O)[C@H](C)NC(=O)[C@H]([C@@H](C)CC)NC(=O)[C@H](CCC(N)=O)NC(=O)[C@H](C)NC(=O)[C@H](CCCNC(=N)N)NC(=O)[C@H](C(C)C)NC(=O)[C@H](CC(C)C)NC(=O)[C@H](CCC(=O)O)NC(=O)[C@H](CCCNC(=N)N)NC(=O)CNC(=O)[C@@H](NC(=O)[C@H](CC(C)C)NC(=O)[C@H](CCCCN)NC(=O)[C@@H](NC(=O)[C@@H](NC(=O)[C@H](CCC(=O)O)NC(=O)[C@H](CCC(=O)O)NC(=O)[C@H](CCSC)NC(=O)[C@H](Cc2c[nH]c3ccccc23)NC(=O)[C@H](CO)NC(=O)[C@H](C)N)C(C)C)[C@@H](C)CC)CSSC[C@@H]2NC(=O)[C@@H](NC(=O)[C@H](CCCCN)NC(=O)[C@H](CC(N)=O)NC(=O)[C@H](C)NC(=O)[C@H](CC(C)C)NC(=O)[C@H](C)NC(=O)[C@H](CO)NC(=O)[C@H](Cc3ccc(O)cc3)NC(=O)[C@H](CC(C)C)NC(=O)[C@@H](N)Cc3ccc(C(C)=NOCCNC(=O)[C@H](CCC(=O)O)NC(=O)[C@H](CCC(=O)O)NC(=O)[C@H](CCC(=O)O)NC(=O)CNC(=O)CNC(=O)CNC(=O)CC[C@H](NC(=O)CCCCCCCCCCCCC(=O)O)C(=O)O)cc3)CSSC[C@H](NC(=O)CNC(=O)[C@H](C(C)C)NC(=O)[C@H](Cc3c[nH]cn3)NC2=O)C(=O)N[C@@H]([C@@H](C)O)C(=O)N[C@@H](CCCCN)C(=O)N[C@@H](CCCNC(=N)N)C(=O)N[C@@H](CO)C(=O)N[C@@H](CC(C)C)C(=O)N[C@@H](C)C(=O)N[C@@H](CCCNC(=N)N)C(=O)N[C@@H](Cc2ccccc2)C(=O)N[C@H](C(=O)O)CSSC[C@@H](C(=O)NCC(=O)N[C@@H](CCSC)C(=O)N[C@@H](CO)C(=O)N[C@H](C(=O)N[C@@H](Cc2c[nH]c3ccccc23)C(=O)N[C@@H](CO)C(=O)O)[C@@H](C)O)NC1=O [AQ1-EEEGGG-Glu^γ-C13-COOH] | 1.38 µM·h | 0.29 nM | 0.31 nM | –
CC[C@H](C)[C@@H]1NC(=O)[C@H](C)NC(=O)[C@H]([C@@H](C)CC)NC(=O)[C@H](CCC(N)=O)NC(=O)[C@H](C)NC(=O)[C@H](CCCNC(=N)N)NC(=O)[C@H](C(C)C)NC(=O)[C@H](CC(C)C)NC(=O)[C@H](CCC(=O)O)NC(=O)[C@H](CCCNC(=N)N)NC(=O)CNC(=O)[C@@H](NC(=O)[C@H](CC(C)C)NC(=O)[C@H](CCCCN)NC(=O)[C@@H](NC(=O)[C@@H](NC(=O)[C@H](CCC(=O)O)NC(=O)[C@H](CCC(=O)O)NC(=O)[C@H](CCSC)NC(=O)[C@H](Cc2c[nH]c3ccccc23)NC(=O)[C@H](CO)NC(=O)[C@H](C)N)C(C)C)[C@@H](C)CC)CSSC[C@@H]2NC(=O)[C@@H](NC(=O)[C@H](CCCCN)NC(=O)[C@H](CC(N)=O)NC(=O)[C@H](C)NC(=O)[C@H](CC(C)C)NC(=O)[C@H](C)NC(=O)[C@H](CO)NC(=O)[C@H](Cc3ccc(O)cc3)NC(=O)[C@H](CC(C)C)NC(=O)[C@@H](N)Cc3ccc(C(C)=NOCCNC(=O)[C@H](CCCCN)NC(=O)[C@H](CCCCN)NC(=O)[C@H](CCCCN)NC(=O)CNC(=O)CNC(=O)CNC(=O)CC[C@H](NC(=O)CCCCCCCCCCCCC(=O)O)C(=O)O)cc3)CSSC[C@H](NC(=O)CNC(=O)[C@H](C(C)C)NC(=O)[C@H](Cc3c[nH]cn3)NC2=O)C(=O)N[C@@H]([C@@H](C)O)C(=O)N[C@@H](CCCCN)C(=O)N[C@@H](CCCNC(=N)N)C(=O)N[C@@H](CO)C(=O)N[C@@H](CC(C)C)C(=O)N[C@@H](C)C(=O)N[C@@H](CCCNC(=N)N)C(=O)N[C@@H](Cc2ccccc2)C(=O)N[C@H](C(=O)O)CSSC[C@@H](C(=O)NCC(=O)N[C@@H](CCSC)C(=O)N[C@@H](CO)C(=O)N[C@H](C(=O)N[C@@H](Cc2c[nH]c3ccccc23)C(=O)N[C@@H](CO)C(=O)O)[C@@H](C)O)NC1=O [AQ1-KKKGGG-Glu^γ-C13-COOH] | 0.258 µM·h | 0.24 nM | 0.09 nM | –
